Patent US10646600B2, “HER2 polypeptides useful for imaging and monitoring tumors and cancers” (GE HEALTHCARE LIMITED, priority 2013, dated 2020)
Entries after “also recorded” stand apart in the source; their conditions may differ.

Key:
Biodistribution, tissues = format: in vivo, mice
Text: Mice were sacrificed at different time points by exsanguination.

[1] = tested on: HER2 negative and p95HER2 transfected cell lines; experiment: In vitro uptake assay, HER2 negative and p95HER2 transfected cell lines; format: cell-based, human; details: across all HER2 negative and p95HER2 transfected lines, 60 minutes
Text: MCF7-vector (piRES), MCF7-p95HER2 and MCF7-HER2 cells were a kind gift of Jose Baselga's laboratory (17). MCF7 clones, MDA-MB-231 (ATCC, Manassas, Va.), MDA-MB-361 (Sigma-Aldrich), SKBR-3 (ATCC) and SKOV-3 (Sigma-Aldrich) cells were maintained in DMEM. AGS (Sigma-Aldrich), HGC-27 (Sigma-Aldrich), NCI-N87 (ATCC) and OE-33 (ATCC) cells were maintained in RPMI (Sigma-Aldrich). A431 cells (Sigma-Aldrich) were maintained in MEM Eagle medium (Sigma-Aldrich). Growth media were supplemented with 10% FCS (Lonza, Basel, Switzerland), glutamine and antibiotics (both Invitrogen, Paisley, United Kingdom). A431 cells were additionally supplemented with 1% non-essential amino acids. All cells were cultured at 37° C. in a humidified atmosphere containing 5% CO2.
For baseline uptake in HER2 positive or negative lineages, 3×10^5 cells were seeded in complete media in 12-well plates (Corning, Tewksbury Mass.) and allowed to recover overnight. Cells were washed twice with serum-free medium and pulsed with 370 KBq in 500 μL serum-free medium for one h. […]
Cells were washed with PBS, trypsinized, neutralized with complete medium and centrifuged. […] The radioactivity of 100 μL lysate was counted on a Packard Cobra II gamma counter (Perkin Elmer). Radioactivity was normalized to applied radioactivity and protein content, which was determined for each sample by BCA assay (Pierce, Rockford, Ill.). […]

Substance: [^18F]GE-226: HER2-binding 18F-radiolabelled Affibody molecule ZHER2:2891
- Tissue uptake, Blood (Biodistribution, tissues; 5 min): 0.82 ± 0.83 % ID/g tissue
- Tissue uptake, Bone (Biodistribution, tissues; 5 min): 1.20 ± 1.08 % ID/g tissue
- Tissue uptake, Brain (Biodistribution, tissues; 5 min): 0.33 ± 0.35 % ID/g tissue
- Tissue uptake, Caecum empty (Biodistribution, tissues; 5 min): 3.24 ± 3.76 % ID/g tissue
- Tissue uptake, Caecum full (Biodistribution, tissues; 5 min): 0.97 ± 1.09 % ID/g tissue
- Tissue uptake, Colon empty (Biodistribution, tissues; 5 min): 2.68 ± 2.44 % ID/g tissue
- Tissue uptake, Colon full (Biodistribution, tissues; 5 min): 2.40 ± 2.53 % ID/g tissue
- Tissue uptake, Duodenum empty (Biodistribution, tissues; 5 min): 3.21 ± 3.50 % ID/g tissue
- Tissue uptake, Duodenum full (Biodistribution, tissues; 5 min): 2.55 ± 2.17 % ID/g tissue
- Tissue uptake, Gallbladder (Biodistribution, tissues; 5 min): 3.22 ± 3.29 % ID/g tissue
- Tissue uptake, Heart (Biodistribution, tissues; 5 min): 3.10 ± 2.83 % ID/g tissue
- Tissue uptake, Jejunum empty (Biodistribution, tissues; 5 min): 2.48 ± 2.81 % ID/g tissue
- Tissue uptake, Jejunum full (Biodistribution, tissues; 5 min): 1.68 ± 1.38 % ID/g tissue
- Tissue uptake, Kidney (Biodistribution, tissues; 5 min): 15.02 ± 6.99 % ID/g tissue
- Tissue uptake, Liver (Biodistribution, tissues; 5 min): 2.90 ± 2.96 % ID/g tissue
- Tissue uptake, Lung (Biodistribution, tissues; 5 min): 3.90 ± 3.84 % ID/g tissue
- Tissue uptake, Muscle (Biodistribution, tissues; 5 min): 0.88 ± 0.81 % ID/g tissue
- Tissue uptake, Plasma (Biodistribution, tissues; 5 min): 12.71 ± 14.90 % ID/g tissue
- Tissue uptake, Spleen (Biodistribution, tissues; 5 min): 3.18 ± 2.66 % ID/g tissue
- Tissue uptake, Stomach empty (Biodistribution, tissues; 5 min): 2.02 ± 1.62 % ID/g tissue
- Tissue uptake, Stomach full (Biodistribution, tissues; 5 min): 1.47 ± 1.85 % ID/g tissue
- Tissue uptake, Urine (Biodistribution, tissues; 5 min): 148.33 ± 127.65 % ID/g tissue
- Tissue uptake, Blood (Biodistribution, tissues; 15 min): 2.00 ± 0.75 % ID/g tissue
- Tissue uptake, Bone (Biodistribution, tissues; 15 min): 3.05 ± 0.88 % ID/g tissue
- Tissue uptake, Brain (Biodistribution, tissues; 15 min): 0.34 ± 0.11 % ID/g tissue
- Tissue uptake, Caecum empty (Biodistribution, tissues; 15 min): 4.94 ± 2.84 % ID/g tissue
- Tissue uptake, Caecum full (Biodistribution, tissues; 15 min): 1.68 ± 0.85 % ID/g tissue
- Tissue uptake, Colon empty (Biodistribution, tissues; 15 min): 5.78 ± 2.99 % ID/g tissue
- Tissue uptake, Colon full (Biodistribution, tissues; 15 min): 3.43 ± 1.89 % ID/g tissue
- Tissue uptake, Duodenum empty (Biodistribution, tissues; 15 min): 5.16 ± 2.36 % ID/g tissue
- Tissue uptake, Duodenum full (Biodistribution, tissues; 15 min): 4.07 ± 1.48 % ID/g tissue
- Tissue uptake, Gallbladder (Biodistribution, tissues; 15 min): 5.10 ± 1.77 % ID/g tissue
- Tissue uptake, Heart (Biodistribution, tissues; 15 min): 3.52 ± 1.19 % ID/g tissue
- Tissue uptake, Jejunum empty (Biodistribution, tissues; 15 min): 4.92 ± 1.33 % ID/g tissue
- Tissue uptake, Jejunum full (Biodistribution, tissues; 15 min): 2.71 ± 1.01 % ID/g tissue
- Tissue uptake, Kidney (Biodistribution, tissues; 15 min): 65.82 ± 18.48 % ID/g tissue
- Tissue uptake, Liver (Biodistribution, tissues; 15 min): 4.58 ± 1.77 % ID/g tissue
- Tissue uptake, Lung (Biodistribution, tissues; 15 min): 5.99 ± 2.10 % ID/g tissue
- Tissue uptake, Muscle (Biodistribution, tissues; 15 min): 2.05 ± 0.86 % ID/g tissue
- Tissue uptake, Plasma (Biodistribution, tissues; 15 min): 9.41 ± 3.75 % ID/g tissue
- Tissue uptake, Spleen (Biodistribution, tissues; 15 min): 3.94 ± 3.24 % ID/g tissue
- Tissue uptake, Stomach empty (Biodistribution, tissues; 15 min): 3.75 ± 1.38 % ID/g tissue
- Tissue uptake, Stomach full (Biodistribution, tissues; 15 min): 2.68 ± 1.04 % ID/g tissue
- Tissue uptake, Urine (Biodistribution, tissues; 15 min): 283.73 ± 243.00 % ID/g tissue
- Tissue uptake, Blood (Biodistribution, tissues; 30 min): 0.53 ± 0.35 % ID/g tissue
- Tissue uptake, Bone (Biodistribution, tissues; 30 min): 1.59 ± 0.94 % ID/g tissue
- Tissue uptake, Brain (Biodistribution, tissues; 30 min): 0.13 ± 0.08 % ID/g tissue
- Tissue uptake, Caecum empty (Biodistribution, tissues; 30 min): 1.92 ± 0.89 % ID/g tissue
- Tissue uptake, Caecum full (Biodistribution, tissues; 30 min): 0.60 ± 0.27 % ID/g tissue
- Tissue uptake, Colon empty (Biodistribution, tissues; 30 min): 1.80 ± 0.94 % ID/g tissue
- Tissue uptake, Colon full (Biodistribution, tissues; 30 min): 1.00 ± 0.59 % ID/g tissue
- Tissue uptake, Duodenum empty (Biodistribution, tissues; 30 min): 2.91 ± 1.27 % ID/g tissue
- Tissue uptake, Duodenum full (Biodistribution, tissues; 30 min): 2.87 ± 1.18 % ID/g tissue
- Tissue uptake, Gallbladder (Biodistribution, tissues; 30 min): 2.74 ± 1.06 % ID/g tissue
- Tissue uptake, Heart (Biodistribution, tissues; 30 min): 1.27 ± 0.60 % ID/g tissue
- Tissue uptake, Jejunum empty (Biodistribution, tissues; 30 min): 1.87 ± 1.12 % ID/g tissue
- Tissue uptake, Jejunum full (Biodistribution, tissues; 30 min): 1.73 ± 1.25 % ID/g tissue
- Tissue uptake, Kidney (Biodistribution, tissues; 30 min): 23.54 ± 11.70 % ID/g tissue
- Tissue uptake, Liver (Biodistribution, tissues; 30 min): 2.27 ± 1.23 % ID/g tissue
- Tissue uptake, Lung (Biodistribution, tissues; 30 min): 3.15 ± 1.84 % ID/g tissue
- Tissue uptake, Muscle (Biodistribution, tissues; 30 min): 0.78 ± 0.48 % ID/g tissue
- Tissue uptake, Plasma (Biodistribution, tissues; 30 min): 4.10 ± 2.23 % ID/g tissue
- Tissue uptake, Spleen (Biodistribution, tissues; 30 min): 1.71 ± 0.90 % ID/g tissue
- Tissue uptake, Stomach empty (Biodistribution, tissues; 30 min): 1.56 ± 0.86 % ID/g tissue
- Tissue uptake, Stomach full (Biodistribution, tissues; 30 min): 1.28 ± 0.92 % ID/g tissue
- Tissue uptake, Urine (Biodistribution, tissues; 30 min): 438.65 ± 219.01 % ID/g tissue
- Tissue uptake, Blood (Biodistribution, tissues; 60 min): 0.32 ± 0.26 % ID/g tissue
- Tissue uptake, Bone (Biodistribution, tissues; 60 min): 0.68 ± 0.40 % ID/g tissue
- Tissue uptake, Brain (Biodistribution, tissues; 60 min): 0.10 ± 0.07 % ID/g tissue
- Tissue uptake, Caecum empty (Biodistribution, tissues; 60 min): 0.87 ± 0.53 % ID/g tissue
- Tissue uptake, Caecum full (Biodistribution, tissues; 60 min): 0.36 ± 0.22 % ID/g tissue
- Tissue uptake, Colon empty (Biodistribution, tissues; 60 min): 1.25 ± 0.94 % ID/g tissue
- Tissue uptake, Colon full (Biodistribution, tissues; 60 min): 0.84 ± 0.59 % ID/g tissue
- Tissue uptake, Duodenum empty (Biodistribution, tissues; 60 min): 2.29 ± 2.29 % ID/g tissue
- Tissue uptake, Duodenum full (Biodistribution, tissues; 60 min): 1.53 ± 0.59 % ID/g tissue
- Tissue uptake, Gallbladder (Biodistribution, tissues; 60 min): 3.92 ± 3.29 % ID/g tissue
- Tissue uptake, Heart (Biodistribution, tissues; 60 min): 0.64 ± 0.40 % ID/g tissue
- Tissue uptake, Jejunum empty (Biodistribution, tissues; 60 min): 0.86 ± 0.46 % ID/g tissue
- Tissue uptake, Jejunum full (Biodistribution, tissues; 60 min): 0.99 ± 0.39 % ID/g tissue
- Tissue uptake, Kidney (Biodistribution, tissues; 60 min): 11.94 ± 10.30 % ID/g tissue
- Tissue uptake, Liver (Biodistribution, tissues; 60 min): 1.64 ± 1.49 % ID/g tissue
- Tissue uptake, Lung (Biodistribution, tissues; 60 min): 1.81 ± 1.32 % ID/g tissue
- Tissue uptake, Muscle (Biodistribution, tissues; 60 min): 0.50 ± 0.45 % ID/g tissue
- Tissue uptake, Plasma (Biodistribution, tissues; 60 min): 1.76 ± 1.06 % ID/g tissue
- Tissue uptake, Spleen (Biodistribution, tissues; 60 min): 0.88 ± 0.56 % ID/g tissue
- Tissue uptake, Stomach empty (Biodistribution, tissues; 60 min): 0.86 ± 0.72 % ID/g tissue
- Tissue uptake, Stomach full (Biodistribution, tissues; 60 min): 0.53 ± 0.29 % ID/g tissue
- Tissue uptake, Urine (Biodistribution, tissues; 60 min): 535.62 ± 303.04 % ID/g tissue
- kidney radioactivity levels versus tumors (Biodistribution, tissues; 60 min): comparable to levels in tumors
- excretion / clearance (Biodistribution, tissues; mouse, in vivo): predominately and rapidly excreted via the renal route; also recorded: rapid renal clearance
- uptake in other organs, including the liver (Biodistribution, tissues; mouse, in vivo): negligible
- background uptake [1]: 1.2±0.5 % applied radioactivity per mg protein
